This note sets out measurements from patent US7456007B1, “β-secretase enzyme compositions and methods” (Elan Pharmaceuticals, Inc., priority 1998, dated 2008).

[ ]: non-standard residue; d: D form. Sta = CC(C)C[C@H](N)[C@@H](O)CC(=O)O

This test deals with β-secretase (Homo sapiens, UniProt P56817). Nature of the test: β-secretase inhibition, assay not specified. Type of test: biochemical.
β-secretase, sequence (P56817 46-501): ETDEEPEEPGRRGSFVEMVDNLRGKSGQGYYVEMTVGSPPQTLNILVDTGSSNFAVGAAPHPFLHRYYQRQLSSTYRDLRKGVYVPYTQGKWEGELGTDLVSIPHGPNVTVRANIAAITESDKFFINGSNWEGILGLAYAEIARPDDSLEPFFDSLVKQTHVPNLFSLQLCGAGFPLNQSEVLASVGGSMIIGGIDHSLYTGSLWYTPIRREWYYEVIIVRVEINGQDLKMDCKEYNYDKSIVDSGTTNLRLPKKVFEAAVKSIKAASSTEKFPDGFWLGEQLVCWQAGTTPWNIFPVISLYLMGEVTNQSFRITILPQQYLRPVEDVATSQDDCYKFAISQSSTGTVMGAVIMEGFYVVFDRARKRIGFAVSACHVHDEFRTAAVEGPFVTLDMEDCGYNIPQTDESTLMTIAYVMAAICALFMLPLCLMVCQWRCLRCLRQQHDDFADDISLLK

“NH2-KTEEISEVN[sta]VAEF-COOH (H-KTEEISEVN[Sta]VAEF-OH) [P10-P4′staD→V]”: the “inhibitor of the enzyme (in words)” value is given as “reasonably potent inhibitor”.
